Laboratory results from the supplement of paper PMC12855868.

B1: library; numbered along this chain (parent)
chain: MAAAGGARLLRAASAVLGGPAGRWLHHAGSRAGSSGLLRNRGPGGSAEASRSLSVSARARSSSEDKITVHFINRDGETLTTKGKVGDSLLDVVVENNLDIDGFGACEGTLACSTCHLIFEDHIYEKLDAITDEENDMLDLAYGLTDRSRLGCQICLTKSMDNMTVRVPETVADARQSIDVGKTS

Variants of: B1
Test: scaled log2 fold change in cell abundance, elesclomol vs control (0 = silent mean, 1 = nonsense mean) (scaled log2 ratio); higher = higher viability under elesclomol (loss of FDX1 cuproptosis function)
Settings: glucose 10 mM
[1] = with ABC1 FDX1 KO, elesclomol 5 nM, 14 days
[2] = with HEK293T FDX1 KO, elesclomol 40 nM, 11 days
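Note: variant abundance is its share of total variant reads in each endpoint sample, from next-generation sequencing of the integrated ORF PCR-amplified out of genomic DNA.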

Variant: L53S
- scaled log2 fold change [1]: -0.175
- scaled log2 fold change [2]: 0.73

Variant: L53T
- scaled log2 fold change [1]: 0.163
- scaled log2 fold change [2]: -0.488

Variant: L53P
- scaled log2 fold change [1]: 0.118

Variant: L53W
- scaled log2 fold change [1]: 0.155
- scaled log2 fold change [2]: 0.498

Variant: L53A
- scaled log2 fold change [1]: 0.205
- scaled log2 fold change [2]: 0.346

Variant: L53I
- scaled log2 fold change [1]: -1.25

Variant: L53R
- scaled log2 fold change [1]: 0.0529
- scaled log2 fold change [2]: -0.455

Variant: L53F
- scaled log2 fold change [1]: 0.298
- scaled log2 fold change [2]: -0.0243

Variant: L53C
- scaled log2 fold change [1]: 0.0732
- scaled log2 fold change [2]: -0.0888

Variant: L53D
- scaled log2 fold change [1]: -0.0291

Variant: L53H
- scaled log2 fold change [1]: 0.262
- scaled log2 fold change [2]: -0.0475

Variant: L53Y
- scaled log2 fold change [1]: -0.194
- scaled log2 fold change [2]: -0.569

Variant: R60K
- scaled log2 fold change [1]: -0.27

Variant: R60H
- scaled log2 fold change [1]: -0.288
- scaled log2 fold change [2]: -0.116

Variant: R60E
- scaled log2 fold change [1]: -0.329
- scaled log2 fold change [2]: 0.272

Variant: R60A
- scaled log2 fold change [1]: 0.137

Variant: R60T
- scaled log2 fold change [1]: -0.956
- scaled log2 fold change [2]: -0.542

Variant: R60L
- scaled log2 fold change [1]: 0.042
- scaled log2 fold change [2]: -0.384

Variant: R60F
- scaled log2 fold change [1]: 0.0888
- scaled log2 fold change [2]: -0.201

Variant: R60V
- scaled log2 fold change [1]: 0.116

Variant: R60Y
- scaled log2 fold change [1]: 0.215
- scaled log2 fold change [2]: 0.0482

Variant: R60Q
- scaled log2 fold change [1]: -0.0931
- scaled log2 fold change [2]: -0.217

Variant: R60I
- scaled log2 fold change [1]: 0.0411

Variant: R60W
- scaled log2 fold change [1]: -0.217
- scaled log2 fold change [2]: 0.972

Variant: R60G
- scaled log2 fold change [1]: -0.278
- scaled log2 fold change [2]: -0.224

Variant: R60S
- scaled log2 fold change [1]: 0.275
- scaled log2 fold change [2]: 0.216

Variant: R60N
- scaled log2 fold change [1]: -0.096
- scaled log2 fold change [2]: 0.128

Variant: R60P
- scaled log2 fold change [1]: -0.332
- scaled log2 fold change [2]: 0.626

Variant: R60C
- scaled log2 fold change [1]: 0.327
- scaled log2 fold change [2]: -0.517

Variant: R60M
- scaled log2 fold change [1]: -0.213
- scaled log2 fold change [2]: 0.72

Variant: S56N
- scaled log2 fold change [1]: 0.0549
- scaled log2 fold change [2]: 1.09

Variant: S56T
- scaled log2 fold change [1]: 0.0393
- scaled log2 fold change [2]: 1.19

Variant: S56A
- scaled log2 fold change [1]: 0.574

Variant: S56Q
- scaled log2 fold change [1]: -0.214
- scaled log2 fold change [2]: 0.782

Variant: S56R
- scaled log2 fold change [1]: 0.43

Variant: S56Y
- scaled log2 fold change [1]: -0.541
- scaled log2 fold change [2]: 0.934

Variant: S56P
- scaled log2 fold change [1]: 0.19

Variant: S56G
- scaled log2 fold change [1]: -1.11
- scaled log2 fold change [2]: 0.888

Variant: S56E
- scaled log2 fold change [1]: 0.234
- scaled log2 fold change [2]: 0.0723

Variant: S56D
- scaled log2 fold change [1]: -0.745
- scaled log2 fold change [2]: 0.383

Variant: S56I
- scaled log2 fold change [1]: -0.125
- scaled log2 fold change [2]: -0.305

Variant: S56H
- scaled log2 fold change [1]: 0.238
- scaled log2 fold change [2]: 0.979

Variant: S56L
- scaled log2 fold change [1]: 0.557
- scaled log2 fold change [2]: 1.06

Variant: S56C
- scaled log2 fold change [1]: -0.222
- scaled log2 fold change [2]: -0.162

Variant: S56W
- scaled log2 fold change [1]: -0.00445
- scaled log2 fold change [2]: 0.0272

Variant: S56K
- scaled log2 fold change [1]: -0.052
- scaled log2 fold change [2]: 0.357

Variant: S56V
- scaled log2 fold change [1]: 0.301
- scaled log2 fold change [2]: -0.368

Variant: S56F
- scaled log2 fold change [1]: 0.177

Variant: S56M
- scaled log2 fold change [1]: -0.109
- scaled log2 fold change [2]: 0.0191

Variant: A57E
- scaled log2 fold change [1]: -0.0705
- scaled log2 fold change [2]: -0.933

Variant: A57Q
- scaled log2 fold change [1]: 0.12
- scaled log2 fold change [2]: -0.354

Variant: A57Y
- scaled log2 fold change [1]: -0.233
- scaled log2 fold change [2]: 0.129

Variant: A57V
- scaled log2 fold change [1]: -0.164
- scaled log2 fold change [2]: 0.356

Variant: A57K
- scaled log2 fold change [1]: 0.162
- scaled log2 fold change [2]: -1.1

Variant: A57F
- scaled log2 fold change [1]: -0.681
- scaled log2 fold change [2]: -0.202

Variant: A57D
- scaled log2 fold change [1]: 0.102
- scaled log2 fold change [2]: -0.382

Variant: A57N
- scaled log2 fold change [1]: 0.029
- scaled log2 fold change [2]: 0.245

Variant: A57I
- scaled log2 fold change [1]: 0.296

Variant: A57C
- scaled log2 fold change [1]: 0.479

Variant: A57L
- scaled log2 fold change [1]: -0.263
- scaled log2 fold change [2]: 0.149

Variant: A57G
- scaled log2 fold change [1]: -0.0446
- scaled log2 fold change [2]: 1.2

Variant: A57W
- scaled log2 fold change [1]: -0.231
- scaled log2 fold change [2]: 0.0227

Variant: A57T
- scaled log2 fold change [1]: 0.0138
- scaled log2 fold change [2]: -0.39

Variant: A57H
- scaled log2 fold change [1]: 0.158
- scaled log2 fold change [2]: -0.799

Variant: A57M
- scaled log2 fold change [1]: -0.0569
- scaled log2 fold change [2]: -0.0232

Variant: A57R
- scaled log2 fold change [1]: 0.224
- scaled log2 fold change [2]: 0.591

Variant: A57S
- scaled log2 fold change [1]: 0.247
- scaled log2 fold change [2]: 0.0851

Variant: S61I
- scaled log2 fold change [1]: -0.527

Variant: S61V
- scaled log2 fold change [1]: 0.78

Variant: S61Y
- scaled log2 fold change [1]: 0.603
- scaled log2 fold change [2]: 1.51

Variant: S61M
- scaled log2 fold change [1]: 0.184

Variant: S61W
- scaled log2 fold change [1]: -0.113
- scaled log2 fold change [2]: 0.846

Variant: S61E
- scaled log2 fold change [1]: 0.468

Variant: S61K
- scaled log2 fold change [1]: -0.0816

Variant: S61N
- scaled log2 fold change [1]: -0.737
- scaled log2 fold change [2]: -0.556

Variant: S61D
- scaled log2 fold change [1]: 1.01
- scaled log2 fold change [2]: 1.93

Variant: S61R
- scaled log2 fold change [1]: -0.524

Variant: S61F
- scaled log2 fold change [1]: -0.102

Variant: S61Q
- scaled log2 fold change [1]: 0.577

Variant: S61G
- scaled log2 fold change [1]: -0.405

Variant: E64P
- scaled log2 fold change [1]: 0.158
- scaled log2 fold change [2]: 0.0559

Variant: E64H
- scaled log2 fold change [1]: -0.531
- scaled log2 fold change [2]: -0.334

Variant: E64K
- scaled log2 fold change [1]: 0.278
- scaled log2 fold change [2]: -0.162

Variant: E64G
- scaled log2 fold change [1]: -0.323
- scaled log2 fold change [2]: 0.0488

Variant: E64R
- scaled log2 fold change [1]: -0.913
- scaled log2 fold change [2]: 0.0821

Variant: E64Y
- scaled log2 fold change [1]: 0.374
- scaled log2 fold change [2]: -0.0105

Variant: E64D
- scaled log2 fold change [1]: 0.0681
- scaled log2 fold change [2]: -0.0197

Variant: E64M
- scaled log2 fold change [1]: -0.109
- scaled log2 fold change [2]: -0.0994

Variant: E64Q
- scaled log2 fold change [1]: -0.0857
- scaled log2 fold change [2]: -0.107

Variant: E64F
- scaled log2 fold change [1]: 0.0956

Variant: E64A
- scaled log2 fold change [1]: -0.335
- scaled log2 fold change [2]: 1.19

Variant: E64W
- scaled log2 fold change [1]: -0.394

Variant: E64I
- scaled log2 fold change [1]: 0.394
- scaled log2 fold change [2]: 0.168

Variant: E64C
- scaled log2 fold change [1]: -0.0781
- scaled log2 fold change [2]: 0.793

Variant: E64V
- scaled log2 fold change [1]: -0.321
- scaled log2 fold change [2]: -0.136

Variant: E64T
- scaled log2 fold change [1]: 0.135
- scaled log2 fold change [2]: -0.296

Variant: E64L
- scaled log2 fold change [1]: -0.17
- scaled log2 fold change [2]: -0.952

Variant: E64S
- scaled log2 fold change [1]: -0.691
- scaled log2 fold change [2]: -0.469

Variant: S52V
- scaled log2 fold change [1]: -0.785
- scaled log2 fold change [2]: -0.177

Variant: S52Q
- scaled log2 fold change [1]: 0.212
- scaled log2 fold change [2]: 1.17

Variant: S52M
- scaled log2 fold change [1]: 0.212
- scaled log2 fold change [2]: -0.953

Variant: S52P
- scaled log2 fold change [1]: -0.128

Variant: S52T
- scaled log2 fold change [1]: -0.921
- scaled log2 fold change [2]: -0.112

Variant: S52N
- scaled log2 fold change [1]: -0.0586
- scaled log2 fold change [2]: -0.095

Variant: S52L
- scaled log2 fold change [1]: 0.253
- scaled log2 fold change [2]: -0.651

Variant: S52R
- scaled log2 fold change [1]: 0.143
- scaled log2 fold change [2]: -1.18

Variant: S52Y
- scaled log2 fold change [1]: 0.285
- scaled log2 fold change [2]: 0.0679

Variant: S52W
- scaled log2 fold change [1]: 0.257
- scaled log2 fold change [2]: -0.162

Variant: V55W
- scaled log2 fold change [1]: 0.0864
- scaled log2 fold change [2]: -0.549

Variant: V55P
- scaled log2 fold change [1]: -0.481
- scaled log2 fold change [2]: 1.06

Variant: V55C
- scaled log2 fold change [1]: 0.313
- scaled log2 fold change [2]: 0.374

Variant: V55I
- scaled log2 fold change [1]: 0.323
- scaled log2 fold change [2]: 1.26

Variant: V55H
- scaled log2 fold change [1]: 0.0403
- scaled log2 fold change [2]: 1.23

Variant: V55G
- scaled log2 fold change [1]: 0.169
- scaled log2 fold change [2]: -0.106

Variant: V55L
- scaled log2 fold change [1]: -0.283

Variant: V55T
- scaled log2 fold change [1]: 0.178
- scaled log2 fold change [2]: -0.356

Variant: V55N
- scaled log2 fold change [1]: -0.28
- scaled log2 fold change [2]: 0.815

Variant: V55F
- scaled log2 fold change [1]: 0.0901
- scaled log2 fold change [2]: -0.339

Variant: V55Q
- scaled log2 fold change [1]: 0.177
- scaled log2 fold change [2]: -0.526

Variant: V55Y
- scaled log2 fold change [1]: 0.0351

Variant: V55M
- scaled log2 fold change [1]: 0.374
- scaled log2 fold change [2]: 0.955

Variant: V55R
- scaled log2 fold change [1]: 0.114
- scaled log2 fold change [2]: 0.865

Variant: V55D
- scaled log2 fold change [1]: -0.0142

Variant: V55E
- scaled log2 fold change [1]: -0.307

Variant: V55S
- scaled log2 fold change [1]: 0.162
- scaled log2 fold change [2]: -0.104

Variant: V55K
- scaled log2 fold change [1]: -0.469
- scaled log2 fold change [2]: -0.443
